Data from patent US20210130436A1 (published 2021).

Tests used:
[1] = molecular target: T1, human PD-L1 (full-length, expressed on CHO cells) (human, UniProt Q9NZQ7 19-290); assay: flow cytometry, MFI on CHO/huPD-L1 cells over MFI on Jurkat (CD28) cells, 33.3 nM
T1 construct: also called huPD-L1; CD274

[2] = molecular target: T1, human PD-L1 (full-length, expressed on …); assay: flow cytometry MFI at 33.3 nM relative to WT CD80 ECD-Fc (R&D), CHO/huPD-L1 cells
[3] = molecular target: T2, human CTLA4 (full-length, expressed on CHO cells) (human, UniProt P16410 36-223); assay: flow cytometry MFI at 33.3 nM relative to WT CD80 ECD-Fc (R&D), CHO/huCTLA4 cells
T2 construct: also called huCTLA4
T2 sequence (P16410 36-223): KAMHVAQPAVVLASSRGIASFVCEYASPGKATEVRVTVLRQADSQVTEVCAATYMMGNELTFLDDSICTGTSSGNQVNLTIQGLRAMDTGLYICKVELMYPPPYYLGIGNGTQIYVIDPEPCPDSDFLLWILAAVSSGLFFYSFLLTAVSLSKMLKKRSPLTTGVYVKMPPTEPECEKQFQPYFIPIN

[4] = molecular target: T3, CD28 (endogenously expressed on Jurkat/IL2 reporter cells) (human, UniProt P10747 19-220); assay: flow cytometry MFI at 33.3 nM relative to WT CD80 ECD-Fc (R&D), Jurkat cells
T3 construct: Endogenous CD28 of Jurkat cells; also called human CD28

[5] = molecular target: T2, human CTLA4 (full-length, expressed on …); assay: flow cytometry, CHO cells expressing huCTLA4, PE anti-human Fc
[6] = molecular target: T3, CD28 (endogenously expressed on …); assay: flow cytometry, Jurkat/IL2 reporter cells (endogenous CD28), PE anti-human Fc
[7] = molecular target: T1, human PD-L1 (full-length, expressed on …); assay: flow cytometry, CHO cells expressing huPD-L1, PE anti-human Fc

T1 sequence (Q9NZQ7 19-290): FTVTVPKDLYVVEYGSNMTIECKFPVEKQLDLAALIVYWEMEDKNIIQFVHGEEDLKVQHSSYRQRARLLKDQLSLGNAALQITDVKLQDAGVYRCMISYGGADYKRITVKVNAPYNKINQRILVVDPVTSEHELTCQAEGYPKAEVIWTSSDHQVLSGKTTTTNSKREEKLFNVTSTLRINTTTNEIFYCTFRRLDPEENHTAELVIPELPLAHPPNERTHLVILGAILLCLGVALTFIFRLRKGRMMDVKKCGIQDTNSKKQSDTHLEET

Row | Binder | Ratio of PDL1:CD28 [1] [ratio] | Fold change to WT [2] [fold] | Fold change to WT CD80 [3] [fold] | Fold change to WT [4] [fold] | MFI at 33.3 nM [5] [MFI] | MFI at 33.3 nM [6] [MFI] | MFI at 33.3 nM [7] [MFI]
1 | variant CD80 IgV-Fc Q33L/E35D/M47V/L85Q (Fc fusion, not shown: a dimerising Fc or GST) VIHVTKEVKEVATLSCGHNVSVEELAQTRIYWLKDKKMVLTMMSGDVNIWPEYKNRTIFDITNNLSIVILALRPSDEGTYECVVQKYEKDAFKREHLAEVTLSVKAD | 177 | 5.97 | 0.42 | 0.04 | 75400 | 268 | 47400
2 | variant CD80 IgV-Fc Q33L/E35D/T41S/M43I (Fc fusion, not shown: a dimerising Fc or GST) VIHVTKEVKEVATLSCGHNVSVEELAQTRIYWLKDKKMVLSMISGDMNIWPEYKNRTIFDITNNLSIVILALRPSDEGTYECVVLKYEKDAFKREHLAEVTLSVKAD | 104 | 5.66 | 0.04 |  | 6390 |  | 44900
3 | variant CD80 IgV-Fc A26E/Q33R/E35D/M47L/L85Q/K86E (Fc fusion, not shown: a dimerising Fc or GST, Fc fusions are described in general as dimers) VIHVTKEVKEVATLSCGHNVSVEELEQTRIYWRKDKKMVLTMMSGDLNIWPEYKNRTIFDITNNLSIVILALRPSDEGTYECVVQEYEKDAFKREHLAEVTLSVKAD | 276 | 9.56 | 0.01 | 0.04 | 1280 | 275 | 76000
4 | variant CD80 IgV-Fc A26E/Q33R/E35D/M47L/L85Q (Fc fusion, not shown: a dimerising Fc or GST) VIHVTKEVKEVATLSCGHNVSVEELEQTRIYWRKDKKMVLTMMSGDLNIWPEYKNRTIFDITNNLSIVILALRPSDEGTYECVVQKYEKDAFKREHLAEVTLSVKAD | 309 | 10.3 | 0.01 | 0.03 | 1280 | 264 | 81500
5 | variant CD80 IgV-Fc A26E/E35D/M43T/M47L/L85Q/R94Q (Fc fusion, not shown: a dimerising Fc or GST) VIHVTKEVKEVATLSCGHNVSVEELEQTRIYWQKDKKMVLTMTSGDLNIWPEYKNRTIFDITNNLSIVILALRPSDEGTYECVVQKYEKDAFKQEHLAEVTLSVKAD | 262 | 8.57 | 1.56 | 0.03 | 278000 | 260 | 68100
6 | variant CD80 IgV-Fc A26E/Q33L/E35D/M47L/L85Q (Fc fusion, not shown: a dimerising Fc or GST) VIHVTKEVKEVATLSCGHNVSVEELEQTRIYWLKDKKMVLTMMSGDLNIWPEYKNRTIFDITNNLSIVILALRPSDEGTYECVVQKYEKDAFKREHLAEVTLSVKAD | 229 | 7.89 | 0.01 | 0.04 | 1170 | 274 | 62700
7 | variant CD80 IgV-Fc H18L/V22A/E35D/M47L/N48T/L85Q (Fc fusion, not shown: a dimerising Fc or GST) VIHVTKEVKEVATLSCGLNVSAEELAQTRIYWQKDKKMVLTMMSGDLTIWPEYKNRTIFDITNNLSIVILALRPSDEGTYECVVQKYEKDAFKREHLAEVTLSVKAD | 226 | 12.3 | 2.09 |  | 374000 |  | 98100
8 | variant CD80 IgV-Fc A26E/Q33L/E35D/M47L (Fc fusion, not shown: a dimerising Fc or GST) VIHVTKEVKEVATLSCGHNVSVEELEQTRIYWLKDKKMVLTMMSGDLNIWPEYKNRTIFDITNNLSIVILALRPSDEGTYECVVLKYEKDAFKREHLAEVTLSVKAD | 225 | 7.67 | 0.01 | 0.04 | 1320 | 271 | 60900
9 | variant CD80 IgV-Fc E7D/E35D/M47I/L97Q (Fc fusion, not shown: a dimerising Fc or GST) VIHVTKDVKEVATLSCGHNVSVEELAQTRIYWQKDKKMVLTMMSGDINIWPEYKNRTIFDITNNLSIVILALRPSDEGTYECVVLKYEKDAFKREHQAEVTLSVKAD | 54 | 1.84 | 1.52 | 0.04 | 271000 | 273 | 14600
